Reference: patent US8003345B2, “Antioxidant pharmaceutical compound, method for producing polypeptide and method of cure” (Institute of Cell Biophysics Russian Academy of Sciences, priority 2002, dated 2011)

Tested on: tracheal epithelium of rat after application of lipopolysaccharide
Assay: Inflammation of rat tracheal epithelium caused by lipopolysaccharide (LPS)
Format: in vivo
Procedure: The therapeutic properties of peroxiredoxin Prx VI in treating the upper respiratory tract of rat immediately after the application of LPS were checked on a group of 4 Wistar line rats weighing 150-200 grams. The application of LPS was carried out in the following manner. The rats were anesthetized with hexenal, and 100 μl of a lipopolysaccharide solution were introduced through a catheter (the lipopolysaccharide concentration was from 10^−9 to 10^−11 mg/ml, the total number of the used animals was 20). After the application of the lipopolysaccharide, the rats were maintained for a definite period of time (1 hour, 3 hours, 6 hours, 7 hours, 9 hours), then narcotized with hexenal (300 mg/kg weight), and a sample of the tracheal epithelial tissue was isolated. For histochemical investigations the isolated sample was placed into a fixing solution containing 2% of formaldehyde and 0.5% of glutaraldehyde. The tissue was dehydrated by sequential routing through ethyl alcohol with increasing concentration (40-100%). The tissue was embedded into LR white resin. The resin was polymerized at room temperature. 0.5 em-thick sections were made on an LKB ultratome (Sweden), using glass knives. The sections were stained with a hematoxylin-eosine and analyzed under a light microscope.
For biochemical investigations we scraped the epithelium with a thin spatula, washed off the scrape with physiological solution and centrifugated at 10000 g for 15 min. The concentration of hydrogen peroxide was by the luminescence method. […] After LPS, application of a solution of a composition based on peroxiredoxin Prx VI into the trachea was carried out. Preliminarily the rats were narcotized by intraperitoneal administration of hexenal (70 mg/kg), the animals were fixed on an operating table, and under visual control with the aid of a binocular lens, through a catheter of 1 mm in diameter, peroxiredoxin solution (20 to 100 μl) was introduced into the trachea. The peroxiredoxin concentration was from 0.5 to 5.0 mg/ml. A 0.9% solution of NaCl was used as the solvent. The application of the solution of the composition was carried out once, immediately after the application of LPS. The application of pure solvent, solutions of serum albumin (10 mg/ml) and of glutathione (10 mM) were used as control.
Histological investigation of the trachea was carried out 24 hrs after the LPS application.

B1: Prx VIhum: recombinant full-size human peroxiredoxin Prx VI, 224 amino acids (SEQ ID NO: 1), produced in E.coli (protein)
chain: MPGGLLLGDVAPNFEANTTVGRIRFHDFLGDSWGILFSHPRDFTPVCTTELGRAAKLAPEFAKRNVKLIALSIDSVEDHLAWSKDINAYNCEEPTEKLPFPIIDDRNRELAILLGMLDPAEKDEKGMPVTARVVFVFGPDKKLKLSILYPATTGRNFDEILRVVISLQLTAEKRVATPVDWKDGDSVMVLPTIPEEEAKKLFPKGVFTKELPSGKKYLRYTPQP
For B1, the “preservation of the tracheal epithelium” value (24 hrs after LPS, application immediately after the LPS, FIG. 9B) was “Complete preservation of the epithelium”, the “Integrity of tracheal epithelium (according to histological data)” value (“Integrity … (according to histological data)” below) (Time after the action of LPS: 1 hour) was 90% and the “Integrity … (according to histological data)” value (Time after the action of LPS: 3 hours) was 80%. For the same molecule, the “Integrity … (according to histological data)” value (Time after the action of LPS: 6 hours) was 65%.
